Measured values from US20240002516A1 (4B TECHNOLOGIES SUZHOU, published 2024).

Experiments:
[1] = target: T1, extracellular domain (ECD) of human TrkA protein, N-terminal flag tag and C-terminal His tag (PHA) (human, UniProt P04629 33-423); test: BLI (ForteBio)
T1 construct: Made in 293-F cells and purified by IMAC; also called TrkA ECD protein; TrkA (ECD); not shown: flag tag at the N-terminus (after the signal peptide); His tag at the C-terminus

[2] = target: human TrkA on CellSensor TrkA-NFAT-bla CHO-K1 cells (human, UniProt P04629 33-796); test: cell-based or functional assay
[3] = target: T1, extracellular domain (ECD) of human …; test: affinity after affinity maturation; method not stated in Example 5
[4] = target: T1, extracellular domain (ECD) of human …; test: BLI (Octet Red384), as in Example 4
Experimental: The bio-layer interferometry (BLI) method was used to determine the affinities of the antibodies, employing Octet Red384. Briefly, anti-human Fc-coated biosensor AHQ tips (ForteBio) were put into PBS with 0.1% w/v bovine serum albumin and 0.05% Tween-20 for a minimum of 10 min in the pre-wetting plate. The purified antibodies (100 nM in PBS with 0.1% bovine serum albumin and 0.05% Tween-20 (assay buffer)) were captured on AHQ biosensors (ForteBio) at a level of about 1 nm. The loaded biosensors were washed with an assay buffer to remove any unbound protein. Then, the association rates, dissociation rates and response were measured, using an antigen of 100 nM (in PBS with 0.1% bovine serum albumin and 0.05% Tween-20).
Two rounds of humanizations were further performed. […] In the second round, many other variants were further constructed (including several mutations in the CDR sequences). Quickchange based site-directed mutagenesis or overlap PCR were performed to create expression plasmid of new versions of 2nd round humanized antibodies. All recombinant antibodies were expressed and purified as described in Example 1, then measured antigen binding affinity using BLI technology with the Octet Red384 instrument as mentioned above. To compare the functional activity of humanized antibodies with chimeric antibodies, NFAT assay was also performed.

[5] = target: T1, extracellular domain (ECD) of human …; test: SPR (BIAcore T200), antibody on protein G chip, PHA 0.625-20 nM injected
Experimental: The binding kinetics and affinities of the humanized antibodies were determined using a BIAcoreT200™ SPR system. Approximately 30 RU of the humanized antibody was immobilized on a protein G sensor chip and serial 2-fold dilutions of the PHA (0.625-20 nM) in 1×HBS-EP+ buffer were injected over the antibody-bound surface at a flow rate of 30 μl/min.

Sequence of human TrkA on CellSensor TrkA-NFAT-bla CHO-K1 cells (P04629 33-796 limits assumed, form in doubt): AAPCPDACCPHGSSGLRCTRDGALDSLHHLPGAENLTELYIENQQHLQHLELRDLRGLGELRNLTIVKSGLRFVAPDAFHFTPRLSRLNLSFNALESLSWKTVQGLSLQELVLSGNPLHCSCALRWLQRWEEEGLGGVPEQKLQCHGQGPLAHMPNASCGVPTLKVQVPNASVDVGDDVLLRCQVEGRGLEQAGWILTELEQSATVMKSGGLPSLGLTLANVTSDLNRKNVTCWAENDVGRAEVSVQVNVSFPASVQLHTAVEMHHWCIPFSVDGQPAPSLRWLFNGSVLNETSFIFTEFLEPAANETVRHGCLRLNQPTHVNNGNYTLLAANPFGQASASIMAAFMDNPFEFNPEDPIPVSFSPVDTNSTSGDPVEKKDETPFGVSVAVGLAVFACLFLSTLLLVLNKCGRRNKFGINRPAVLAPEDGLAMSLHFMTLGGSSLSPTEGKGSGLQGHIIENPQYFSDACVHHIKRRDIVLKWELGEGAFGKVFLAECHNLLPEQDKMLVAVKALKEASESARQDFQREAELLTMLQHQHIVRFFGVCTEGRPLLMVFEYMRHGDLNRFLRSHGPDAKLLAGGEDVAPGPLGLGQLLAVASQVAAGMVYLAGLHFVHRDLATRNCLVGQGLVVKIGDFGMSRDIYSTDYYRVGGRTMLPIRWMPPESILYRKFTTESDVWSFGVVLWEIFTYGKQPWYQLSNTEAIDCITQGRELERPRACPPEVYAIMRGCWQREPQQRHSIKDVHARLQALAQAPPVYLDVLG
T1 sequence (P04629 33-423): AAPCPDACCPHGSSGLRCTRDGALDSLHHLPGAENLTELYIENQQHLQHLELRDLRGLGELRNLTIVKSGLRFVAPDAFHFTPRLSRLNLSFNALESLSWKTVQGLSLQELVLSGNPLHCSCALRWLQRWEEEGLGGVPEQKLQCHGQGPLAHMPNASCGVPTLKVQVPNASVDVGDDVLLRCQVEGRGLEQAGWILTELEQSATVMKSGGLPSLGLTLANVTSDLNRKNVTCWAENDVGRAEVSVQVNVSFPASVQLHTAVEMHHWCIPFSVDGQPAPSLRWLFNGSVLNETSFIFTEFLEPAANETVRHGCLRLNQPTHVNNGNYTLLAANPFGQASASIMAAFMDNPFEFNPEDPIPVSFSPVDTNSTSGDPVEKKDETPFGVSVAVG

| Binder | Kd [1] [nM] | koff [1] [s⁻¹] | kon [1] [M⁻¹ s⁻¹] | NFAT IC50 [2] [nM] | other results |
| --- | --- | --- | --- | --- | --- |
| PHD29 (antibody, V domains shown) VH: QVQLVQSGAEVKKPGASVKVSCKASGYTFTTYWMHWVRQAPGQGLEWIGTIYPGNSDTSFAQKFQGRVTLTRDTSTSTAYMELSSLRSEDTAVYYCTRFYFEDWYFDVWGQGTTVTVSS VL: DIQMTQSPSSLSASVGDRVTITCRASSSISWLYWFQQKPGKAPKPLIYYTSSLGSGVPSRFSGSGSGTDYTLTISSLQPEDFATYYCQQWHSYPPTFGGGTKVEIK | 11.9 | 0.00441 | 371000 | – | – |
| PHD49-05 (antibody, V domains shown) VH: QVQLVQSGAEVKKPGSSVKVSCKASGYTFSSHWIQWVRQAPGQGLEWIGAIYPGDDDTIYTQKFQGRATITTDKSTSTAYMELSSLRSEDTAVYYCARNYDYQAWFAYWGQGTLVTVSS VL: DIQMTQSPSSLSASVGDRVTITCRASSSVSYLYWYQQKPGKAPKPLIYLTSSLASGVPSRFSGSGSGTDYTLTISSLQPEDFATYYCQQWSSNPLTFGQGTKLEIK | – | – | – | 170 | Kd [3]: 0.583 nM; koff [3]: 0.000174 s⁻¹; kon [3]: 299000 M⁻¹ s⁻¹ |
| PHD22 (antibody, V domains shown) VH: QVQLVQSGAEVKKPGASVKVSCKASGYTFTEYWMHWVRQAPGQGLEWIGTIYPGNSDTSYAQKFQGRVTLTRDTSTSTAYMELSSLRSEDTAVYYCTRFYFEDWYFDVWGQGTTVTVSS VL: DIQMTQSPSSLSASVGDRVTITCRASSSISWLYWFQQKPGKAPKPLIYYTSTLGSGVPSRFSGSGSGTDYTLTISSLQPEDFATYYCQQWHSYPPTFGGGTKVEIK | 23.8 | 0.0113 | 473000 | – | – |
| PHD26 (antibody, V domains shown) VH: QVQLVQSGAEVKKPGASVKVSCKASGYTFTEYWMHWVRQAPGQGLEWIGTIYPGNSDTSYAQKFQGRVTLTRDTSTSTAYMELSSLRSEDTAVYYCTRFYFEDWYFDVWGQGTTVTVSS VL: DIQMTQSPSSLSASVGDRVTITCRASSSISWLYWFQQKPGKAPKPLIYYTSSLGSGVPSRFSGSGSGTDYTLTISSLQPEDFATYYCQQWHSYPPTFGGGTKVEIK | 16.6 | 0.00811 | 490000 | – | – |
| PHD49-11 (antibody, IgG4, V domains shown) VH: QVQLVQSGAEVKKPGSSVKVSCKASGYTFSSYWMQWVRQAPGQGLEWIGAIYPGDDDTIYTQKFKGRATITADKSTSTAYMELSSLRSEDTAVYYCARNYDYQAWFAYWGQGTLVTVSS VL: DIQMTQSPSSLSASVGDRVTITCRASSSVSYLYWYQQKPGKAPKPWIYLTSNLASGVPSRFSGSGSGTDYTLTISSLQPEDFATYYCQQWSSNPLTFGQGTKLEIK | – | – | – | 269 | Kd [4]: 10.6 nM; koff [4]: 0.00207 s⁻¹; kon [4]: 196000 M⁻¹ s⁻¹ |
| PHD25 (antibody, V domains shown) VH: QVQLVQSGAEVKKPGASVKVSCKASGYTFTTYWMHWVRQAPGQGLEWIGTIYPGNSDTSFAQKFQGRVTLTRDTSTSTAYMELSSLRSEDTAVYYCTRFYFEDWYFDVWGQGTTVTVSS VL: DIQMTQSPSSLSASVGDRVTITCRASSSISWLYWFQQKPGKAPKPLIYYTSTLGSGVPSRFSGSGSGTDYTLTISSLQPEDFATYYCQQWHSYPPTFGGGTKVEIK | 12.3 | 0.00471 | 383000 | – | – |
| PHD48 (antibody, V domains shown, also called full-length PHD48 antibody) VH: QVQLVQSGAEVKKPGASVKVSCKASGYTFTTYWMHWVRQAPGQGLEWIGTIYPGNSDSSNAQKFQGRVTLTRDTSTSTAYMELSSLRSEDTAVYYCTRFYYEDWYFDVWGQGTTVTVSS VL: DIQMTQSPSSLSASVGDRVTITCRASSSVSYLYWFQQKPGKAPKPLIYRTSNLASGVPSRFSGSGSGTDYTLTISSLQPEDFATYYCQQYHSYPPTFGGGTKVEIK | – | – | – | 66.5 | Kd [5]: 1.87 nM; koff [5]: 0.000413 s⁻¹; kon [5]: 220000 M⁻¹ s⁻¹ |
| PHD48-08 (antibody, IgG4, V domains shown) VH: QVQLVQSGAEVKKPGASVKVSCKASGYTFTTYWMHWVRQAPGQGLEWIGTIYPGNSDSSNAQKFQGRVTLTADTSTSTAYMELSSLRSEDTAVYYCTRFYYEDWYFDVWGQGTTVTVSS VL: DIQMTQSPSSLSASVGDRVTITCRASSSVSYLYWFQQKPGKAPKPLIYRTSNLASGVPSRFSGSGSGTDYTLTISSLQPEDFATYYCQQYHSYPPTFGGGTKVEIK | – | – | – | 188 | Kd [5]: 2.77 nM; koff [5]: 0.00045 s⁻¹; kon [5]: 163000 M⁻¹ s⁻¹; Kd [4]: 1.38 nM; koff [4]: 0.000331 s⁻¹; kon [4]: 240000 M⁻¹ s⁻¹ |
| PHD49-21 (antibody, V domains shown) VH: QVQLVQSGAEVKKPGSSVKVSCKASGFTFSSYWIQWVRQAPGQGLEWIGAIYTGDGDTIYTQKFQGRATITTDESTSTAYMELSSLRSEDTAVYYCARNYHYQAWFDYWGQGTLVTVSS VL: DIQMTQSPSSLSASVGDRVTITCRASSSVSYLYWYQQKPGKAPKPLIYLTSDLASGVPSRFSGSGSGTDYTLTISSLQPEDFATYYCQQWSSNPLTFGQGTKLEIK | – | – | – | 124 | Kd [3]: 0.259 nM; koff [3]: 9.51e-05 s⁻¹; kon [3]: 367000 M⁻¹ s⁻¹ |
| PHD30 (antibody, V domains shown) VH: QVQLVQSGAEVKKPGASVKVSCKASGYTFTEYWMHWVRQAPGQGLEWIGTIYPGNSDSSFAQKFQGRVTLTRDTSTSTAYMELSSLRSEDTAVYYCTRFYYEDWYFDVWGQGTTVTVSS VL: DIQMTQSPSSLSASVGDRVTITCRASSSISYLYWFQQKPGKAPKPLIYRTSSLGSGVPSRFSGSGSGTDYTLTISSLQPEDFATYYCQQYHSYPPTFGGGTKVEIK | 7.23 | 0.00351 | 486000 | – | – |
| PHD24 (antibody, V domains shown) VH: QVQLVQSGAEVKKPGASVKVSCKASGYTFTTYWMHWVRQAPGQGLEWIGTIYPGNSDTSLAQKFQGRVTLTRDTSTSTAYMELSSLRSEDTAVYYCTRFYFEDWYFDVWGQGTTVTVSS VL: DIQMTQSPSSLSASVGDRVTITCRASSSISWLYWFQQKPGKAPKPLIYYTSTLGSGVPSRFSGSGSGTDYTLTISSLQPEDFATYYCQQWHSYPPTFGGGTKVEIK | 11.6 | 0.00518 | 446000 | – | – |
| PHD28 (antibody, V domains shown) VH: QVQLVQSGAEVKKPGASVKVSCKASGYTFTTYWMHWVRQAPGQGLEWIGTIYPGNSDTSLAQKFQGRVTLTRDTSTSTAYMELSSLRSEDTAVYYCTRFYFEDWYFDVWGQGTTVTVSS VL: DIQMTQSPSSLSASVGDRVTITCRASSSISWLYWFQQKPGKAPKPLIYYTSSLGSGVPSRFSGSGSGTDYTLTISSLQPEDFATYYCQQWHSYPPTFGGGTKVEIK | 18.4 | 0.00764 | 415000 | – | – |
| PHD49 (antibody, V domains shown) VH: QVQLVQSGAEVKKPGSSVKVSCKASGFTFSSYWIQWVRQAPGQGLEWIGAIYTGDGDTIYTQKFQGRATITTDESTSTAYMELSSLRSEDTAVYYCARNYHYQAWFDYWGQGTLVTVSS VL: DIQMTQSPSSLSASVGDRVTITCRASSSVSYLYWYQQKPGKAPKPLIYLTSSLASGVPSRFSGSGSGTDYTLTISSLQPEDFATYYCQQWSSNPLTFGQGTKLEIK | – | – | – | 266 | Kd [3]: 0.174 nM; koff [3]: 5.21e-05 s⁻¹; kon [3]: 300000 M⁻¹ s⁻¹ |
